According to the DeepSol protein solubility set:

Test: soluble on expression in E. coli; label from the status in PepcDB or PDB records

Row | Sequence | soluble on expression in E. coli
1 | MGSDKIHHHHHHMTSRSPFESFVWQSEIFNCQSNDIDAFYAQLAEEVNRLGLKKNTLGSVDSFAINLYQSASQRSDLPSLLISSGFHGEEAAGPWGMLHFLRGLQPALFERVNLSLLPLVNPTGFKAGHRFNRFGENPNRGFTLENGKPTPNEHTSLEGKLLLEHAQLLCAASRDGILTCHEDVLMNETYVYSFEPTQTPGRFSLGLRDALGQYFKLAKDGFIDECPVTDGVIFNHFDTSFEAFLVRSGAKLAACSETPGQEDFDRRVQANSAAMGQFIAHCAPIL | not soluble
2 | MKTTYNRWWKKKVWFGRKDMSYKVIVDSCGEFTPEMKADGGFEHVALGIQIEDTQWTDDDSLKQEELLLKIAESTSCAKTSCPSPERYMESYHCDAERIYVVTLSAELSGSYNSAVLGKNLYEEEYGEKQIHVFNSRSASVGETLIALKVQQCEKAGMTFEEVVESVECYIEEQHTYFVLENLDTLRKNGRLTGIKSLVAGALNIKPIMGSTPQGTICQKEKARGMKKALVKMADCVAADVVNAGDKILAIAHCNCEERAKEVQRLLKERFAVKSSFIVDTSGISTVYANDGGIIVVV | soluble
3 | MISAAPYRDRVVHHALYNIIVPIFERTFISDSYANRVGFGSHRALRRFTQFSRSSHYVFQADIRKYFPSIDHKILKHLIYRKIKCPDTLWLINTIIDNSNFQEPVINYFPGDNLLAPLERRCGLPIGNLTSQFFANVYLNNFDHFVKEQLQAFKYIRYVDDFALFSDDKAFLETARVIIEEYLTSLRLKIHPIKSQLFETKHGANFVGFRILPNQIRVRSDNLRLGRKRLRQMLRDYDEGKIDAQHLTQSTQSWVAHLKHGDTWQLRQRIFSSSIFDLAMLILEHHHHHH | soluble
4 | SLVVNRSWMRCWSITALRADHSVKICLIDETGAGDGALSVLAARWGLEHDEDNLMALVLTPEHLELRKRDEPKLGGIFVDFVGGAMAHRRKFGGGRGEAVAKAVGIKGDYLPDVVDATAGLGRDAFVLASVGCRVRMLERNPVVAALLDDGLARGYADAEIGGWLQERLQLIHASSLTALTDITPRPQVVYLDPMFPHKQKSALVKKEMRVFQSLVGPDLDADGLLEPARLLATKRVVVKRPDYAPPLANVATPNAVVTKGHRFDIYAGTPV | soluble
5 | MASVTLKNVCKAYGDVLISKNVDLEIQEGEFVVFVGPSGCGKSTLLRCIAGLEDITSGDLYIGEQRMNDVEPSKRGVGMVFQSYALYPHLNLYDNMSFGLKLSKADKSEIKKRVDHAAEILQLSHLLDRQPKALSGGQRQRVAIGRTLVSQPNVFLLDEPLSNLDAALRVQMRSEITKLQRKLGCTMIYVTHDQVEAMTMADKIVVLDAGFVSQVGKPLELYHYPQNRFVAGFIGSPKMNFMSVFIEGVEKDRVQVQLSNGTTFWIPVDGTTVTRGERMSLGIRPEHLVEAEHGDAKIEGKVMIVEKLGNETQVYMNLKGSDSDVIYRQPDTLDVETGDTLTIGIPAHRCHLFHSDGRACRRLHKEKGVDLPA | not soluble
6 | MGSDKIHHHHHHAAVGEKLGWPQQKISKIESGEQKRIPAAELDALLEVYGVTDPQIRESLHECARLAKERGWWTRYKDAFPSGLPDFESEASVIRSYECQVIPGILQTPDYADAIFRAYKLREDKEIDRLVKARMERQNILNRVDPPHFMTIIDEAALHRLVGSVEVMRTQLRHLTHMASRHNIDIYVLPFKAGAHAATTGSFMIMDFPDPMDNSIVYVDTPTSILYIEDEEEVREFNVMFSRTQSAALSPTLSMDLVKKVIKSLEE | not soluble
7 | MRGSHHHHHHTDPALRAYDNLKSLGITNPEEIDRYSLRQEANNDILKIYFQKDKGEFFAKSVKFKYPRQRKTVVADGVGQGYKEVQEISPNLRYIIDELDQICQRDRSEVDLKRKILDDLRHLESVVTNKISEIEADLEKLTRKGLCGR | soluble
8 | AFSSTTTLTPSNVASREFIDTRAPNPEICVQYGASAMVMDARLFVTLNPFNVYVAQPNIRPGCVLRQNNWAILENKKLVTSDQVRECKNRLNTFGFTGNLDSEKPDIRCIYQNESAQNFFLSQPGAVGPSQDTERF | not soluble
9 | MMPLSTPDFASIRDTLLRDLQNLRADADIAPDSDYFVRASSVASAVEGLYQHQSWIARQIFPDTADSEYLEQHARLRGIVRKPAAAASGTLRISGNAGAVVSGSLQLRIGEQLYATPAANPDGSPYAARLDANGQAELPIFASQAGAAGNQPESLPVELMQAPSGVSAKALLLSMRNGVDVEDDAALLDRLLELIRRPPAGGNRHDYRRWAMEVKGVSAAYVYPLRRGLGTVDVVITANGDLPSQEILNNVQAHIEDLRPVTAKSCLVLAPTPRPVDIDVALNLGGANLDAFTPLLQQTLQAYFAGLAPGERLVKSRIEALISDLPGVQDRQLNSPAGNVDPVSDPTKVEWLRLGKLTVGLLKLEHHHHHH | soluble
10 | MARDGAVYACQSCGAVQTKWSGQCSACQSWNTLVEEVSAKPPGALSATKATRVRGLQFTGLESETAPPPRILTGVDEFDRVCGGGVVPGSALLIGGDPGVGKSTLLLQVCASAAARGVSCAYISGEEAVEQIRGRADRMGLAKANVSLAAETALRDILDGLKRDNFDLVVIDSIQTMWSDAHEAGPGTVTQVRACATELVRLAKKKGVAILLVGHVTKDGQIAGPRVVEHLVDAVLSFEGERGYPFRILRGAKNRFGATDEIGVFEMGDVGLREVKNPSALFLNEGGERAAGAAVFAGIEGSRPVLVEFQALVAPSAYGTPRRAVVGWDSGRLAMVLAVLEARCGLGFGDKDVYLNVAGGLRITEPAADLAAAAALASSALDVALPQDCVVFGELSLSGEVRPVSRMETRLKEAAKLGFGRALGPLAGLPEGGGALPVAGVARLTDAVRRIGDEIWTSLT | soluble
11 | MAEIHYLISDASKKVDVEAHVLRYWEEELELPIPRNDMGHRYYTDFHIRLFKQVKVLKEKGYQLKAIKTALAKSLQDGKVIIPSEVLEEDVIAALKETGIGEQDMKEQKGNENKNGEKRADEKVKDGQACEGGGEAGLTALDKDSVEALLAGEKMEQFQKVMNHIIGRAMEENSEKLSQDISYLVHDKLMKEMEYLMRVSDEREEERFKQLDEVIRAYQRDNQGRAEAAASVTGFPFFRFKKKKFGRNGNKL | not soluble
12 | MGSDKIHHHHHHMLSAMYLIDAFFSRQNNQFHLEQQSHCVNQIIEQWRYNGQIIGREIPQFVAEQKNQQGLAVRVTCPEQTSLLAEFNNQPVNDALQTAEKCGVSFESFHIVAEDLNSEITATETPAWQLLYTTYLQSCSPLQSGESLQPIPLYKQLKNIPHLAMDLVKWQENWQACDQLQMNGSVLEQQALVQISDTQSTLFKHGYHLTQEIERHSGIPTYYYLYRIGGKSCEAELQSRCPLCKRKWTLSHPLFDFLYFKCDHCRLVSNLSWHWQ | not soluble
13 | MASIPTVNVIGAGLAGSEAAWHIANMGVNVRLYEMRPNKMTPAHHTAQFAELVCTNSLRANQLANAAGLLKAEMRQMDSIVMQAAEHHAVPAGGALAVDRDTFSAEITAAITALPNVEIINEEITSLPDGITVVATGPLTAASLAKSIQAFNDEDDLHFFDAAAPILTKDSIDMDKVYLKSRYDRGEAAYLNCPMTEAEFDVFYDALIHAEMAEAHDFENSDVFEGCMPIEVMAQRGRQTMLFGPLKPVGLEDPKTGKQPFAVVQLRQDDAAGDLYNIVGFQTHLKWGEQKRVFSLIPGLENVEFVRYGVMHRNTFMKSPKLLTPTYQTQQRPDLFFAGQMTGVEGYIESAASGIVAGTNAARLALGLEPVVFPTDTMMGAMAHYITHTSASNFQPMNANFGIMPKLKQRIRDKRERNTAISERALADLTTFKDETLTVNNLEHHHHHH | soluble
14 | MSLTPSVSTKELEGGLLIVDEMSMVDTWLANTLFKAIPTNMQVILVGDKDQLPSVGPGQVLHDLLEIEQIPKMELNQIYRQGDGSSIIPLAHEIKEGRLPKDFTKNQKDRSYFRSDAYQIEPLISKIVEKAKNKGFRAQDIQVLAPMYRGPAGIDALNKMMQEIFNPGKPGKKEVHWNDTVYRIGDKVLQLVNTPELNVFNGDMGEITGIILAKDSEDKVDELVIQFDANEVTYKRNEWNKITLSYCCSIHKSQGSEFKMVILPMVHQYQRMLQRNLLYTAVTRSKELLILLGEEQAYVTCVANESASRMTTLKSRIMDNDKMNEGHHHHHH | not soluble
15 | MSMKGKETMSNEKIVVGKFGATYGIRGWLKVFSYTDNAESIFDYSPWYINQKGKWVEYKVESWKRHNKGMVAKLEGMDVREDAHLMTNFEIAIDPAVLPELSEDEFYWRELFGMHVVTTKGYDLGVVTDMLETGSNDVLVVKANLKDAFGQKERLIPFLEEQVIIKVDREAQRIEVDWDPGFLEHHHHHH | soluble
